Test results as given in article PMC6735679.
Read-outs that look alike come from different tables or passages of the source.

How the values were obtained:
CNBP [1] = target: T1, CNBP (Homo sapiens, UniProt P62633 1-177); experiment: EMSA
CNBP [2] = target: T1, CNBP; experiment: EMSA; remark: listed apart in the source

T1 sequence (P62633 whole entry): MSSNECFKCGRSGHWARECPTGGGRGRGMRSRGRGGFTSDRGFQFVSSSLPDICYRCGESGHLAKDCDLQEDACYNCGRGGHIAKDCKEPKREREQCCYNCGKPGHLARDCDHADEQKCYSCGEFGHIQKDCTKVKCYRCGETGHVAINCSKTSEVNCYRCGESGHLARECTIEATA

Row | Binder | binding result (CNBP [1]) | binding result (CNBP [2])
1 | GAGGGGGAGGGGGG (ssDNA) [C14] | binds | 
2 | TGGGGT (ssDNA) [TG4T (single strand)] |  | no binding
